Experiments:
[1] = BTK FAC plasma stability assay, PBS buffer arm; type: physicochemical; conditions: for Plasma stability (h) PBS: incubation to 24 h
Method in brief: (§1)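 Stability in PBS buffer or EDTA-treated plasma is followed over 24 h at 38 °C with shaking. Protein precipitation with acetonitrile (glyburide 0.2 µM as internal standard) stops each timepoint, and LC-MS/MS gives analyte-to-standard area ratios.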

[2] = BTK FAC plasma stability assay, mouse plasma; type: in vitro ADME; conditions: for Plasma stability (h) mouse: incubation to 24 h
Method in brief: as §1

[3] = BTK FAC plasma stability assay, rat plasma; type: in vitro ADME; conditions: for Plasma stability (h) rat: incubation to 24 h
Method in brief: as §1

[4] = BTK FAC plasma stability assay, dog plasma; type: in vitro ADME
[5] = In vivo pharmacokinetic study in Beagle dogs (i.v. or s.c.), FAC and payload in blood; set-up: species or system dog; conditions: analyte payload after FAC i.v. dose 1 umol/kg
Description: (§2) Pharmacokinetic studies were conducted in male C57/B16 mice; male Sprague-Dawley rats; male Beagle dogs and male Cynomolgus monkeys. 3 animals per group were used for each study performed. All studies were performed in accordance with local animal welfare regulations.
(§3) Between 1 and 10 µM/kg FAC was administered either intravenously or subcutaneously as a solution in 10 mM PBS with NaOH (dose volume 0.4 mL/kg in dog and monkey s.c. and 0.2 mL/kg i.v. in monkey). Serial 100 µL blood samples were collected via venipuncture of the cephalic vein at defined timepoints to 336 hours (into EDTA coated tubes).
(§4) Each blood sample was precipitated with acetonitrile containing internal standard; samples were mixed and centrifuged (20 minutes 4000 RPM at 4° C.). Supernatant was transferred to a microwell plate and evaporated under nitrogen at 60° C. Residue was resuspended in acetonitrile/water (7:3 v/v); plate sealed and transferred to an ultrasonic bath for 3 minutes, prior to analysis. Quantification was performed by LC-MS/MS (SciexAP16500 Q-trap, Shimadzu Nexera X2) using a Phenomenex Polar RP analytical column (2.5 μm particle size; 50×2 mm). The mobile phase consisted of solvent A (0.1% formic acid in water) and solvent B (0.1% formic acid in acetonitrile). The fatty acid conjugate and API were detected using multiple reaction monitoring.
(§5) Data analysis and calculation of non-compartmental pharmacokinetic parameters was
(§6) performed using an in-house analysis. Following intravenous administration whole blood clearance was calculated by the dose administered divided by AUC0-inf. Volume of distribution at steady state was calculated as MRT*CL, where MRT is the mean residence time, calculated by AUMC0-inf/AUC0-inf. The half-life (t1/2) of the terminal elimination phase was calculated by 0.693/λ. For both intravenous and subcutaneous administration, the systemic exposures were determined by calculating the area under the blood concentration time curve (AUC) from time zero to the last observed quantifiable concentration (AUClast) by using the linear trapezoidal method and normalised to dose. Extrapolated AUC (AUC0-inf) is calculated by addition of AUClast and AUCtlast-inf; where AUCtlast-inf is calculated based on Clast/λ. The slope of the terminal elimination phase was estimated by linear regression of the terminal data points (minimum 3 points) from a natural log concentration versus time plot of the data. Bioavailability was calculated as the dose normalized ratio of […] AUCinf to intravenous AUCinf (100*[SC AUCinf/SC dose]/[IV AUCinf/IV dose]). Following subcutaneous administration Cmax is calculated as the average maximum observed peak concentration and Tmax is the time associated with the determined Cmax.

[6] = In vivo pharmacokinetic study in Cynomolgus monkeys (i.v. or s.c.), FAC and payload in blood; set-up: species or system cynomolgus monkey; conditions: analyte FAC, FAC i.v. dose 1 umol/kg
Description: as §2, §3, §4, §5, §6

[7] = BTK FAC plasma stability assay, cyno plasma; type: in vitro ADME, cynomolgus monkey
BTK C481S = molecular target: T1, BTK C481S (Homo sapiens, UniProt Q06187, C481S); experiment: PD screen in TMD8 BTK C481S mutant tumor-bearing mice, BTK levels and compound concentrations in blood and tumor; type: in vivo, mouse
T1 construct: endogenous in cells; host or cells: TMD8 BTK C481S mutant tumour xenografts in mice
Method in brief: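 Single compound injection in mice bearing TMD8 BTK C481S tumors, groups of 2, with blood and tumor sampled at day 0, 4, 7 and sometimes 10. Compound levels measured by UPLC/MS-MS and BTK levels by Meso Scale Discovery.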

[8] = In vivo pharmacokinetic study in mice (i.v. or s.c.), FAC and payload in blood; set-up: species or system mouse; conditions: male, C57/B16, mouse, in vivo, iv; analyte FAC; FAC i.v. dose 10 umol/kg; read-out: FAC AUC-uM.h mouse
Description: as §2
(§7) […] Serial 30 µL blood samples were collected via venipuncture of the tail vein in mouse, and via the cannulated jugular vein in rats at defined timepoints to 216 hours (into EDTA coated tubes).
as §4, §5, §6
(§8) For PK experiments, non-tumor bearing mice or rats were treated once (10 mL/kg) with a compound either i.v. or s.c. Serial blood samplings from the tail vein (5-20 μl) were collected during the course of the experiment. For PK/PD experiments in tumor-bearing mice, compound was administered once (10 mL/kg) either i.v. or s.c. Animals were randomized into groups of n=3 and tissue samples were collected at several time points. At the times indicated, animals were anaesthetized by exposure to 2-3% v/v isoflurane in medical oxygen. They were sacrificed without recovering from anesthetic after blood sampling into commercially prepared EDTA coated tubes (Milian, cat #TOM-14C) in order to extract plasma. The tissues were excised, weighted and rapidly frozen in liquid nitrogen. Later, tumors were cryogenic dry pulverized with the CryoPrep™ system (model CP-02, Covaris). For efficacy experiments in ectopic tumor-bearing mice, animals were randomized into groups of n=6 for a mean tumor size of 100 mm^3 and compound was administered either i.v. q3w or s.c. q2w. When implanted in brain, animals were randomized into groups of n=4 for a mean bioluminescence of 1.0-2.0E+06 [p/s]/[ρW/cm^2] and compound was administered i.v. qw. Tumor response were reported with the measures of tumor volumes or bioluminescence from the treatment start. […]

[9] = In vivo pharmacokinetic study in rats (i.v. or s.c.), FAC and payload in blood; set-up: species or system rat
Description: as §2, §7, §4, §5, §6, §8

T1 sequence (Q06187 whole entry C481S): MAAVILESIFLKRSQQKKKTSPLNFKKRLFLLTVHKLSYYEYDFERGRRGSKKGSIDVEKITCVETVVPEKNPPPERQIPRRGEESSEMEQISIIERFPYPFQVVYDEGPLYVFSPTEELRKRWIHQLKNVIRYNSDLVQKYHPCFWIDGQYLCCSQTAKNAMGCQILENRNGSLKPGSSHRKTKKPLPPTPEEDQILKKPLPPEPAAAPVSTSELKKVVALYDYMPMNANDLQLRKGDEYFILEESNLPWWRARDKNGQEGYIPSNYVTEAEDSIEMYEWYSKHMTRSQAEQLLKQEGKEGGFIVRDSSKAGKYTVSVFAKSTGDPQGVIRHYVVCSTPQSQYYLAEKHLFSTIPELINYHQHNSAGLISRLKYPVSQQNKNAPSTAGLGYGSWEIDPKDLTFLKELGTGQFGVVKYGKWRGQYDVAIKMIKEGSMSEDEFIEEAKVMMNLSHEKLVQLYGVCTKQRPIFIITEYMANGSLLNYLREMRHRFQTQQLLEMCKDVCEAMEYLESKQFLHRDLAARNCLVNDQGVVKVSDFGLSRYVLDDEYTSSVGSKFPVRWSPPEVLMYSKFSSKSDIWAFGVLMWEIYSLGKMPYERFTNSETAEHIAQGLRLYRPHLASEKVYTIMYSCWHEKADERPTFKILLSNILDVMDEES

| Structure (SMILES) | % Release of degrader after 24 h PBS [1] [%] | Plasma stability (h) PBS [1] [h] | % Release of degrader after 24 h mouse [2] [%] | Plasma stability (h) mouse [2] [h] | % Release of degrader after 24 h rat [3] [%] | Plasma stability (h) rat [3] [h] | Plasma stability (h) dog [4] [h] | % Release of degrader after 24 h dog [4] [%] | Payload C0-uM dog [5] [µM] | C0 ([6]; read-out: FAC C0-uM cyno) [µM] | AUC ([6]; male, cynomolgus monkey, whole blood, iv, read-out: FAC AUC-uM.h cyno) [µM·h] | Plasma stability (h) cyno [7] [h] | % Release of degrader after 24 h cyno [7] [%] | Duration of BTK degradation in mouse ≥90% (BTK C481S; i.v., 50 umol/kg) [days] | AUC [8] [µM·h] | C0 ([9]; analyte FAC, FAC i.v. dose 10 umol/kg, read-out: FAC C0-uM rat) [µM] | Payload C0-uM Rat ([9]; analyte payload after FAC i.v. dose 10 umol/kg) [µM] | AUC ([9]; male, Sprague-Dawley, rat, in vivo, iv, analyte FAC, FAC i.v. dose 10 umol/kg, read-out: FAC AUC-uM.h rat) [µM·h] | Duration of BTK degradation in mouse ≥90% (BTK C481S; i.v., 25 umol/kg) [days] | Duration of BTK degradation in mouse ≥90% (BTK C481S; s.c., 25 umol/kg) [days] |
| --- | --- | --- | --- | --- | --- | --- | --- | --- | --- | --- | --- | --- | --- | --- | --- | --- | --- | --- | --- | --- |
| CCCCCCCCCCCN(C(=O)CCCCCCCCCC(=O)O)[C@@H](CCC(=O)NCCOCCOCCOCCOCCOCCOCCOCCOCCOCCOCCOCCOCCC(=O)NCC(=O)OC(C)(C)c1ccc(C(=O)Nc2cc(F)cc(-c3ncnc4[nH]c(-c5ccc(CCN6CCC7(CC6)CCN(C(=O)c6ccc(OC)c(N8CCC(=O)NC8=O)c6)CC7)cc5)cc34)c2C)c(F)c1)C(=O)O [Example A2, (S)-50-Carboxy-2-(4-((3-(6-(4-(2-(9-(3-(2,4-dioxotetrahydropyrimidin-1(2H)-yl)-4-methoxybenzoyl)-3,9-diazaspiro[5.5]undecan-3-yl)ethyl)phenyl)-7H-pyrrolo[2,3-d]pyrimidin-4-yl)-5-fluoro-2-methylphenyl)carbamoyl)-3-fluorophenyl)-2-methyl-4,7,47,52-tetraoxo-51-undecyl-3,10,13,16,19,22,25,28,31,34,37,40,43-tridecaoxa-6,46,51-triazadohexacontan-62-oic acid] | 0.8 | >48 | 3.4 | 12.3 | 8.9 | 18.1 | >48 | 7.3 | 0.2 | 56.6 | 590 |  |  |  |  |  |  |  |  |  |
| CCCCCCCCCCCN(C(=O)CCCCCCCCCC(=O)O)C(CCC(=O)NCCOCCOCCOCCOCCOCCOCCOCCOCCOCCOCCOCCOCCC(=O)NC(C)(C)CC(=O)OC(C)(C)c1ccc(C(=O)Nc2cc(F)cc(-c3ncnc4[nH]c(-c5ccc(CCN6CCC7(CC6)CCN(C(=O)c6ccc(OC)c(N8CCC(=O)NC8=O)c6)CC7)cc5)cc34)c2C)c(F)c1)C(=O)O (stereo not shown) [Example A18, 51-Carboxy-2-(4-((3-(6-(4-(2-(9-(3-(2,4-dioxotetrahydropyrimidin-1(2H)-yl)-4-methoxybenzoyl)-3,9-diazaspiro[5.5]undecan-3-yl)ethyl)phenyl)-7H-pyrrolo[2,3-d]pyrimidin-4-yl)-5-fluoro-2-methylphenyl)carbamoyl)-3-fluorophenyl)-2,6,6-trimethyl-4,8,48,53-tetraoxo-52-undecyl-3,11,14,17,20,23,26,29,32,35,38,41,44-tridecaoxa-7,47,52-triazatrihexacontan-63-oic acid] | 0.6 | >48 | 0.8 | >48 | 0.2 | >48 | >48 | 0.3 | 0.3 |  |  | >48 | 0.4 | <4 |  |  |  |  |  |  |
| CCCCCCCCCCCN(C(=O)CCCCCCCCCC(=O)O)C(CCC(=O)NCCOCCOCCOCCOCCOCCOCCOCCOCCOCCOCCOCCOCCC(=O)NCc1ccc(CC(=O)OC(C)(C)c2ccc(C(=O)Nc3cc(F)cc(-c4ncnc5[nH]c(-c6ccc(CCN7CCC8(CC7)CCN(C(=O)c7ccc(OC)c(N9CCC(=O)NC9=O)c7)CC8)cc6)cc45)c3C)c(F)c2)cc1)C(=O)O (stereo not shown) [Example A23, 46-Carboxy-1-(4-(2-((2-(4-((3-(6-(4-(2-(9-(3-(2,4-dioxotetrahydropyrimidin-1(2H)-yl)-4-methoxybenzoyl)-3,9-diazaspiro[5.5]undecan-3-yl)ethyl)phenyl)-7H-pyrrolo[2,3-d]pyrimidin-4-yl)-5-fluoro-2-methylphenyl)carbamoyl)-3-fluorophenyl)propan-2-yl)oxy)-2-oxoethyl)phenyl)-3,43,48-trioxo-47-undecyl-6,9,12,15,18,21,24,27,30,33,36,39-dodecaoxa-2,42,47-triazaoctapentacontan-58-oic acid] | 0.2 | >48 | 5.8 | >48 | 1.1 | >48 | >48 | 0.8 | 0.59 |  |  | >48 | 0.6 |  | 856 |  |  |  |  |  |
| COc1ccc(C(=O)N2CCC3(CCN(CCc4ccc(-c5cc6c(-c7cc(F)cc(NC(=O)c8ccc(C(C)(C)OC(=O)CNC(=O)CCOCCOCCOCCOCCOCCOCCOCCOCCOCCOCCOCCOCCNC(=O)C(CCCCCCCCCCCCCCP(=O)(O)O)(CCCCCCCCCCCCCCP(=O)(O)O)C(=O)O)cc8F)c7C)ncnc6[nH]5)cc4)CC3)CC2)cc1N1CCC(=O)NC1=O [Example A28, 2-(4-((3-(6-(4-(2-(9-(3-(2,4-dioxotetrahydropyrimidin-1(2H)-yl)-4-methoxybenzoyl)-3,9-diazaspiro[5.5]undecan-3-yl)ethyl)phenyl)-7H-pyrrolo[2,3-d]pyrimidin-4-yl)-5-fluoro-2-methylphenyl)carbamoyl)-3-fluorophenyl)-2-methyl-4,7,47-trioxo-48,48-bis(14-phosphonotetradecyl)-3,10,13,16,19,22,25,28,31,34,37,40,43-tridecaoxa-6,46-diazanonatetracontan-49-oic acid] |  |  |  |  |  |  |  |  |  |  |  |  |  |  |  | 57 | 0.21 | 704 | 10 | 10 |
